Paper doi:10.1101/2024.01.03.573942 (bioRxiv, 2024)

Legend:
[1] = molecular target: ModTad2 (Tad2 homolog encoded by a prophage of Myroides odoratus) (prophage of Myroides odoratus); experiment: crystal structure
crystal structure = molecular target: the molecule itself; experiment: crystal structure

ModTad2 (Tad2 homolog encoded by a prophage of Myroides odoratus) (natural protein)
stoichiometry N [1]: 4

B1: Macro domain of ThsA(amylo) (residues 83-297), type II Thoeris of Bacillus amyloliquefaciens Y2 (domain or fragment, UniProt I2C645 83-297, looked up)
chain: NNITLNLNGSEVEIKKGDIFEVPRNNYKVIAFNEYFDTQVDDVIIARETLNGQYIKRYYSHQDITELDQKIKDDVKLKIEEKNVERPFGGKTTRYSLGSVFKDMDFFLVAFSKFDRENRAQLKLNEYASCMLNVWNEINTLHASKEVFIPLLGSGITRHVDSDVGVNELLHIMLWTFQISKVKFREPAKVTILLYKNDHKKINFYKLKEFEKNGL
stoichiometry N (crystal structure): 2
